This is an account of results in the DeepSol protein solubility set.

A short description of this data set: soluble on expression in E. coli; label from the status in PepcDB or PDB records.
As to “MSSAQRVVITPGEPAGSGPDLVVQLAQRAWPIELVVCADGALLTERAAMLGLPLSLLPYSPDVPAAPQPAGTLTLLPVSLRAPAISGQLTVENGPYVVETLARACDGCLNGEFAALITGPVHKGVINDAGISFTGHTEFFEERSQAKKVVMMLATEELRVALATTHLPLRAIADAITPALLHEVIAILHHDLRTKFGIAEPRILVCGLNPHAGEGGHMGTEEIDTIIPVLDELRAQGMKLNGPLPADTLFQPKYLDNADAVLAMYHDQGLPVLKYQGFGRGVNITLGLPFIRTSVDHGTALELAGRGKADVGSFITALNLAIKMIVNTQ”, the “soluble on expression in E. coli” value is “soluble”.

Take “MSSAQVNGISKRLIVESPNVKLEDGVLESRFTYRKNHFEHRADGLHVTPKEHDYSFKTVLKPRKTGLLLVGLGGNNGSTAVGSIFANQYAMTWRTKEGHSQANYFGSVTQTATVHLGYDSATQNQIFVPFKDIVPILSPNDLIISGWDISDSNLYEAMGRAKVFEPELQEKLRPFMEPIVPLPSIYYPDFIASNQGDRANNVIPGDNKLEHLEHIRADIRKFKQEHELECVIVLWTANTERYTDVRQGLNATADEIMESIRVNEDEVSPSNIFAVASILEGAHYINGSPQNTLVPGLIELAERHKVFVGGDDFKSGQTKFKSAFVDFLVSSGMKPESIVSYNHLGNNDGKNLSEARQFRSKEISKSSVVDDMVKSNQILFPDAKNPDHCVVIKYVPYVADSKRAMDEYICSIFMGGKQTFVVHNTCEDSLLASPLIYDLAILTELASRVSYKVDDEYKPFHSVLSILSLLLKAPVVPPGTPISNAFMRQFSTLTKLVTALAGFPSDTDMQIEFFTQLPAAKSKSQ”: the “soluble on expression in E. coli” value is reported as “not soluble”.

Regarding “MSSAWKTPRGSDAMPEIMVKIIGSKHFQYLVEKPKIKENDSLKTETQTMHQKPMTDNARQMSRDTPVPINFTDQQTTDNPDDVKEKKHPENNQKSENNQKLLTGANSSRFLDGNIPSQANVHCSSVPTGDQSLSYVHGIPRRKLRDWSLEQMVRGSSDQPEDIGQSPSGTTNEDAFLLALVRRELKSRPLSSNLLEKLQKELKILDPISSGFLLQSQLSRLFLKHEVPLQLPTVKILCQRFSKRGSPEMVNYEKLLWFLNSAASDYPQQNKAAADLRKTESHGTHSQSTPPQHSSSQPEVNRSLLEILKMALRTTNGRLNIDNLNLSFRKEDRSFSGCLPLPKVRAICGKHGLYLTLSLLETLLNHQDLGYQNEIKWQNFVEMLTRASSDLLSDLPTGKNEKKAPAPPMEPEVPEMSQSKTEHMKTPEEELQPESSPAETSACKDPLKPLKIRPVSQPFVNPAVKNKAEECETWIDRFRKLENALYLCDLSNTGVLEKERARRLIHNYNLIYNLSLSPQKIDQALRRFRSGENMLLEPALRYLKEL”, the “soluble on expression in E. coli” value was “not soluble”.

Regarding “MSSHENDTPLPVPYTSRLGQPLDAGQTLNVHGKINEGAQVAEINLLQGGGEIGPNTQVILHLKLNFKEKKVILNSYENGVWGKEERESLPFQAGQEFDLRIRVLDEGLEISADNKKIHEFKHRLPFQSIEYLSVRGDLSLNGIHWGGRFYKLPWETAFPAGFLEKGQRVHLYGIPKGDRWSLDLVARNQDILFHFNPRIKDKAVVRNSHRNGFWDTEEREGGFPFKKDVGFDLTIVNEEYSIQIFINRERFGTFQHRTQNPIGDYIGLRIDGEVEVTGIEFSH”, the “soluble on expression in E. coli” value is recorded as “soluble”.

As for “MSSHHHHHHMQFDVTIEIPKGQRNKYEVDHETGRVRLDRYLYTPMAYPTDYGFIEDTLGDDGDPLDALVLLPQPVFPGVLVAARPVGMFRMVDEHGGDDKVLCVPAGDPRWDHVQDIGDVPAFELDAIKHFFVHYKDLEPGKFVKAADWVDRAEAEAEVQRSVERFKAGTH”, the “soluble on expression in E. coli” value is recorded as “soluble”.

Take “MSSKMVKSSEIVGKLNLRAHQEGGFFAETFRDSSVFLSTSQLPPTFKVDRAVSTSIYFLLPSGSVSRLHRIPMAETWHFYLGEPLTVVELYDDGKLKFTCLGPDLFEGDQKPQYTVPPNVWFGSFPTKDVHFSQDGALLKAEARDSENHFSLVGCTCAPAFQFEDFELAKRSDLLSRFPQHESLITMLSYPE”: the “soluble on expression in E. coli” value is given as “soluble”.

Consider “MSSLDNAPLLELDVQEWVNHEGLSNEDLRGKVVVVEVFQMLCPGCVNHGVPQAQKIHRMIDESQVQVIGLHSVFEHHDVMTPEALKVFIDEFGIKFPVAVDMPREGQRIPSTMKKYRLEGTPSIILADRKGRIRQVQFGQVDDFVLGLLLGSLLSETDET”, for which the “soluble on expression in E. coli” value is “soluble”.

Consider “MSSLRRKWISDPAFKVFKKVLPPLSSTEKEAMEAGSVWWDAELFSGKPNFTTLHHYPAPTLTAEEQAFMDNELETLLDMLDDQKIVKEDRDLPPEVWEYLRKERFFSLIISKEYGGREFSALANSTIVSRIATRSISVAVSVMVPNSLGPGELLSHYGTQEQKDYWLPRLADGTDIPCFALTGPEAGSDAGGIPDQGVVCYGMYDGEEVLGVRVSWNKR”, for which the “soluble on expression in E. coli” value was “not soluble”.

Consider “MSSMVEVEHWNTLRLRIYIGENDKWEGRPLYKVIVEKLREMGIAGATVYRGIYGFGKKSRVHSSDVIRLSTDLPIIVEVVDRGHNIEKVVNVIKPMIKDGMITVEPTIVLWVGTQEEIKKFEEDAIAERQ”, for which the “soluble on expression in E. coli” value is recorded as “soluble”.

“MSSNVPADMINLRLILVSGKTKEFLFSPNDSASDIAKHVYDNWPMDWEEEQVSSPNILRLIYQGRFLHGNVTLGALKLPFGKTTVMHLVARETLPEPNSQGQRNREKTGESNCCVIL”: the “soluble on expression in E. coli” value is “soluble”.

Consider “MSSPTATKYDVFLSFRGLDTRRNFISFLYKELVRRKIRTFKDDKELENGRRISPELKRAIEESKFAVVVVSVNYAASPWCLDELVKIMDFENKGSITVMPIFYGVDPCHLRRQIGDVAEQFKKHEAREEDHEKVASWRRALTSLASISGECSLKWEDEANLVDEIADKISKNLMTVTTISNGRDLVGIDTHMKALNKKLDLNSNKSLRVVGIWARGYNGRSALAKYVYQDICHWLKVGWLKVYQDIKTASKLYVLTRWLKVAHLLHRSHHSFKTE”, for which the “soluble on expression in E. coli” value was “soluble”.

With “MSSQKQLEGMIFDVQSFSVHDGPGCRTTVFLNGCPLSCKWCANPESWTVRPHMMFSELSCQYENGCTVCHGKCKNGALSFNLDNKPVIDWNICKDCESFECVNSCYYNAFKLCAKPYTVDELVQVIKRDSNNWRSNGGVTFSGGEPLLQHEFLHEVLLKCHEVNIHTAIETSACVSNEVFNKIFNDIDFAFIDIKHMDREKHKEQTGVYNDLILENISNLANSDWNGRLVLRVPVISGFNDSDENISDIISFMHKNNLVEINLLPFHRLGESKWTQLGKEYEYSDKGDVDEGHLEELQDIFLDNGIACYVGHETAF”, the “soluble on expression in E. coli” value is “not soluble”.

On to “MSSRKRGITPSRDQVRRKKLSIEETDSIEVVCRLCPYTGSTPSLIAIDEGSIQTVLPPAQFRRENAPQVEKVFRFGRVFSENDGQATVFERTSVDLILNLLKGQNSLLFTYGVTGSGKTYTMTGKPTETGTGLLPRTLDVIFNSINNRVEKCIFYPSALNTFEIRATLDAHLKRHQMAADRLSTSREITDRYCEAIKLSGYNDDMVCSVFVTYVEIYNNYCYDLLEDARNGVLTKREIRHDRQQQMYVDGAKDVEVSSSEEALEVFCLGEERRRVSSTLLNKDSSRSHSVFTIKLVMAPRAYETKSVYPTMDSSQIIVSQLCLVDLAGSERAKRTQNVGERLAEANSINQSLMTLRQCIEVLRRNQKSSSQNLEQVPYRQSKLTHLFKNYLEGNGKIRMVICVNPKPDDYDENMSALAFAEESQTIEVKKQVERMPSERIPHSFFTQWNSELDGSVRMEDDGSREIPCPPTFCLTDCNDKDTVDSMYKYARKLSSLQNSSEEGPSSTLLTMIRQYMMEADYQRVEIARLKDSLNDKDEEIKKLRGFCSRYKRENASMKERIASCEQGEQENALVMEKLMEQKMEDRKIIQSQKKAMRNVRGIIDNPSPSVASLRSRFDQENVAHPTAPIQTPPPPYQTPGRAPVFKKRLEATTSTTVMSGSSSGGSGQQGYVNPKYQRRSKSASRLLDHQPLHRVPTGTVLQSRTPANAIRTTKPEMHQLNKSGEYRLTHQEVDDEGNISTNIVKGNVIPTVSGGTAVFFNDIERLTHESPSTRK”, for which the “soluble on expression in E. coli” value is listed as “not soluble”.

For “MSSSHLAERHAFSDLSLLSEALAQSVTVTLRNAIERYGKASLVVPGGHTPVVYLPRLAQMDLPWQQVFITLSDERWVEPTSEQSNERLVREHFLQHMQQQPHFIALKTGHIHPDQAITDIDARLAELPQPFSLVILGLGEDGHIASLFPGMALNPDTTSLCQTATPPAAPSLRISLSLHALINSDRIILVITGKEKRQLIDRLIESPDQNIPFVRLMQFKPVELFETD”, the “soluble on expression in E. coli” value is given as “not soluble”.

Consider “MSSTPQFLRWYEQNKPVPYRSVLQEKFEPGQTLIVKGSTIDESQRFTINLHSKTADFSGNDVPLHVSVRFDEGKIVLNSFSNGEWGKEERKSNPIKKGDSFDIRIRAHDDRFQIIVDHKEFKDYEHRLPLSSISHLSIDGDLYLNHVHWGGKYYPVPYESGLANGLPVGKSLLVFGTVEKKAKRFHVNLLRKNGDISFHFNPRFDEKHVIRNSLAANEWGNEEREGKNPFEKGVGFDLVIQNEEYAFQVFVNGERYISFAHRADPHDIAGLQISGDIELSGIQIQ”, for which the “soluble on expression in E. coli” value is “not soluble”.

Turning to “MSSVSEVNVDIKDFLMSINLEQYLLHFHESGFTTVKDCAAINDSLLQKIGISPTGHRRRILKQLQIILSKMQDIPIYANVHKTKKNDDPSKDYHVPSSDQNICIELSNSGSVQTSSPPQLETVRKNLEDSDASVERSQYPQSDDKLSPPKRDFPTAEEPHLNLGSLNDSLFGSDNIKIESLITKKTVDHTVEEQQTEKVKLITENLSKLPNADSECLSFVGCSTSGTNSGNGTNGLLEGSPPSPFFKFQGEMIVNDLYVPSSPILAPVRSRSKLVSRPSRSFLLRHRPVPEIPGSTKGVSGSYFRERRNVATSTEKSVAWQNSNEENSSSIFPYGETFLFQRLENSKKRSIKNEFLTQGEALKGEAATATNSFIIKSSIYDNRKEKISEDKVEDIWIPREDKNNFLIDTASESEYSTVEECFQSLRRKNSKASKSRTQKALILDSVNRHSYPLSSTSGNADSSAVSSQAISPYACFYGASAKKVKSGWLDKLSPQGKRMFQKRWVKFDGLSISYYNNEKEMYSKGIIPLSAISTVRVQGDNKFEVVTTQRTFVFRVEKEEERNDWISILLNALKSQSLTSQSQAVVTPEKCGYLELRGYKAKIFTVLSGNSVWLCKNEQDFKSGLGITIIPMNVANVKQVDRTVKQSFEIITPYRSFSFTAETEKEKQDWIEAVQQSIAETLSDYEVAEKIWFNESNRSCADCKAPDPDWASINLCVVICKKCAGQHRSLGPKDSKVRSLKMDASIWSNELIELFIVIGNKRANDFWAGNLQKDEELHMDSPVEKRKNFITQKYKEGKFRKTLLASLTKEELNKALCAAVVKPDVLETMALLFSGADVMCATGDPVHSTPYLLAKKAGQSLQMEFLYHNKFSDFPQHDIHSEGVLSQESSQSTFLCDFLYQAPSAASKLSSEKKLLEETNKKWCVLEGGFLSYYENDKSTTPNGTININEVICLAIHKEDFYLNTGPIFIFEIYLPSERVFLFGAETSQAQRKWTEAIAKHFVPLFAENLTEADYDLIGQLFYKDCHALDQWRKGWFAMDKSSLHFCLQMQEVQGDRMHLRRLQELTISTMVQNGEKLDVLLLVEKGRTLYIHGHTKLDFTVWHTAIEKAAGTDGNALQDQQLSKNDVPIIVNSCIAFVTQYGLGCKYIYQKNGDPLHISELLESFKKDARSFKLRAGKHQLEDVTAVLKSFLSDIDDALLTKELYPYWISALDTQDDKERIKKYGAFIRSLPGVNRATLAAIIEHLYRVQKCSEINHMNAHNLALVFSSCLFQTKGQTSEEVNVIEDLINNYVEIFEVIILYPALVKMVIMSLFANKYLCC”, the “soluble on expression in E. coli” value is given as “soluble”.

As for “MSSWAKVIYGASTELDAKVVELNVGGQFYTTTMGTLMKHPGSKFSEILSRSARHYKDAQGRFFIDRPGTYFGLLLDYLRTGQVPTEYVPEVYQEAKFYQIHLLVKILEDMPQIFGEQVARTQFLMGVPNYRENLEVLLHLARAEAVAMRSSKVVVCVVRTEEEDAKCVKPLHILEAKKTPVVKFGPWKAGPMTEDFVCCLEKDIRAKGYKVTSQRYYLSRDPYTCFWIFVFTWW”, the “soluble on expression in E. coli” value is “not soluble”.
